{"source": "FireProtDB (doi:10.1021/bi00015a036)", "parents": {"B1": {"name": "Barstar, P11540 (parent)", "chain": "MKKAVINGEQIRSISDLHQTLKKELALPEYYGENLDALWDCLTGWVEYPLVLEWRQFEQSKQLTENGAESVLQVFREAKAEGCDITIILS"}}}
{"variants_of": "B1", "details": "Bacillus amyloliquefaciens; pH 7; Thermal; DSC; PIPES 50 mM; reversible: yes (~80%); structure 1BTA; whole UniProt chain shown", "units": {"Tm": "°C", "unfolding enthalpy (calorimetric)": "kcal/mol"}}
{"variant": "C41A C83A", "Tm": 74, "unfolding enthalpy (calorimetric)": 63.4}
{"variants_of": "B1", "details": "Bacillus amyloliquefaciens; pH 10; Thermal; DSC; CAPS 50 mM; reversible: yes (~80%); structure 1BTA; whole UniProt chain shown", "units": {"Tm": "°C", "unfolding enthalpy (calorimetric)": "kcal/mol"}}
{"variant": "C41A C83A", "Tm": 68.6, "unfolding enthalpy (calorimetric)": 58.6}
{"variants_of": "B1", "details": "Bacillus amyloliquefaciens; pH 10.3; Thermal; DSC; CAPS 50 mM; reversible: yes (~80%); structure 1BTA; whole UniProt chain shown", "units": {"Tm": "°C", "unfolding enthalpy (calorimetric)": "kcal/mol"}}
{"variant": "C41A C83A", "Tm": 67, "unfolding enthalpy (calorimetric)": 57.4}
{"variants_of": "B1", "details": "Bacillus amyloliquefaciens; pH 10.5; Thermal; DSC; CAPS 50 mM; reversible: yes (~80%); structure 1BTA; whole UniProt chain shown", "units": {"Tm": "°C", "unfolding enthalpy (calorimetric)": "kcal/mol"}}
{"variant": "C41A C83A", "Tm": 65.7, "unfolding enthalpy (calorimetric)": 56.2}
